Source: US20250282887A1 (Amgen, published 2025)
Numbering of substitutions follows the chain as printed.

T1: human MAGEB3 (human, UniProt O15480 1-346)
T1 construct: whole, on cells; Transfected into CHO cells with Myc/DDK tags
T1 sequence (looked up): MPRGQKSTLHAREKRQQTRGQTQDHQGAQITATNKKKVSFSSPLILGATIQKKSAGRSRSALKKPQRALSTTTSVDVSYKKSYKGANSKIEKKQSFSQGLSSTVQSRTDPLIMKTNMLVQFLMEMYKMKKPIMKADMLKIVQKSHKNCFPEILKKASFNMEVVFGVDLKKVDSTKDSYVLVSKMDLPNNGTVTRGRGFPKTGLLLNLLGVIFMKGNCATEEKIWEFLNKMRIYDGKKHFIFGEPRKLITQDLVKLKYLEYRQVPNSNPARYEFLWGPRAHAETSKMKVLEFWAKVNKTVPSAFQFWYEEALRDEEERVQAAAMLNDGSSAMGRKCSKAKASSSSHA

T2: human MAGEB10 (human, UniProt Q96LZ2 1-347)
T2 construct: whole, on cells; FFPE cell pellets
T2 sequence (looked up): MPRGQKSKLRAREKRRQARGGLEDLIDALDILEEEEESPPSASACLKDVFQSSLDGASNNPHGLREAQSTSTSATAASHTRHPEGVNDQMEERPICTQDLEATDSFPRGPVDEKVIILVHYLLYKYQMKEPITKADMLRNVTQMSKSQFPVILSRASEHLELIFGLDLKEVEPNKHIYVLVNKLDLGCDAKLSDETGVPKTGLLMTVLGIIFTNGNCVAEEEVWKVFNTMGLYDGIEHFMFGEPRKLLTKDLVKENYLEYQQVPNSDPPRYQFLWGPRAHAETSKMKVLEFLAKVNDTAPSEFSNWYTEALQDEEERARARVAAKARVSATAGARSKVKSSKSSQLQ

B1: 1I14 (antibody, V domains shown)
VH: QSVEESGGRLVTPGTPLTLTCTISGFSLSSYAMSWVRQAPGKGLEWIGSIGGGGSAVYASWAKGRFTISKTSTTVDLRITSPTTEDTAMYFCGRGFYSIDLWGPGTLVTVSS
VL: DVVMTQTPASVEATVGGTVTIKCQSSQSVYDNNALAWYQQNAGQRPRLLIYGASTLASGVPSRFSASGSGTEFTLTISDLECADAATYYCQCTYYVSSYQNDFGGGTEVVVKG
notes: also called MAGE-B2 (1i14)
B2: 1C3 (antibody, V domains shown)
VH: QSLEESGGGLVQPEGSLTLTCTAFGVTLTNYYICWVRQAPGKGLEWVGCIDNANGRTYYASWAKGRFTISKTSSTTGTLQMTSLTAADTATYFCARSLATPLWGPGTLVTVSS
VL: DIVMTQTPSSVEAAVGGTVTIKCQASQNISSYLAWYQQKPGQPPKLLIYRASTLASGVPSRFKGSGSGTQFTLTISDLECADAATYYCQSYDDSRSSNFFYAFGGGTEVVVKG
notes: also called MAGE-B2 (IC3); anti-MAGEB2 antibody 1C3
B3: 4G17 (antibody, IgG1, V domains shown)
VH: B2 VH with F24S, T29S, V47I, A53V
VL: DIVMTQTPASVEAAVGGTVTIKCQASQNIDSYLAWYQQKPGQPPKLLIYRASTLASGVPSRFKGSGSGTEFTLTISDLECADAATYYCQSYDDSRSSSFFYGFGGGTEVVVK
notes: Rabbit monoclonal IgG1; Tested as supernatant and as small batch purified antibody; also called MAGE-B2 (4G17); anti-MAGEB2 antibody 4G17
B4: 1J15 (antibody, IgG1, V domains shown)
VH: B2 VH with V26F, T29N, V47I, G48A, G77V, A99S
VL: B3 VL with N28S, D30S, A34S, K63R, E70Q, R95S, S96D, S97N, S98N, K112R
notes: Rabbit monoclonal IgG1; Tested as supernatant and as small batch purified antibody; also called MAGE-B2 (IJ15); anti-MAGEB2 antibody 1J15

These binders were tested against T3, human MAGEA6 (human, UniProt P43360 1-314) (assay: IHC, FFPE CHO cells transfected with human MAGEA6).
T3 construct: whole, on cells; FFPE cell pellets
Protocol: (§1) FFPE samples were sectioned at 4 μm and mounted on positive charged glass slides. After mounting, paraffin sections were air-dried at room temperature. FFPE TMA samples were received as freshly sectioned and mounted on glass slides. The fully automated IHC assay was performed on a Discovery Ultra Stainer (Ventana Medical Systems, Tucson, AZ) using Ventana Anti-Rabbit HQ (cat #760-4815), Ventana Anti-HQ HRP (cat #760-4820), and Ventana Antibody Diluent with Casein (cat #760-219) (Ventana Medical Systems, Tucson, AZ). The slides were baked on the Discovery Ultra Stainer at 60° C. for 8 minutes, de-paraffinized with Ventana Discovery wash (cat #950-510) for 3 cycles (8 minutes each) at 69° C., and underwent cell conditioning (target retrieval) at 95° C. for 16 minutes (for cell arrays) or 32 minutes (tissues or TMAs) in CC1 buffer (cat #950-500). Following this, slides were incubated with Background Sniper (cat #BS966M, Biocare Medical, Pacheco, CA) in a Ventana Option Prep kit (cat #771-751) for 28 minutes, incubated with CM inhibitor (a part of the Ventana DAB kit cat #760-159) for 12 minutes, and incubated for 1 h at RT with MAGE-B2 antibody diluted with Ventana diluent with Casein in a Ventana Prep kit (cat #770-001) (working concentration at 0.1 μg/ml for cell pellet, or 1-5 ug/ml for tissues) or with a matched concentration of isotype control Rabbit IgG1 antibody. Following this, slides were incubated with the Ventana Anti-Rabbit HQ (cat #760-4815) for 28 minutes at RT, Ventana Anti-HQ HRP (cat #760-4820) for 28 minutes at RT, and signals detected with Ventana DAB chromogen kit (cat #760-159) for 5 minutes at RT. Slides were counterstained with Ventana Hematoxylin II (cat #5266726001) for 8 minutes and Ventana Bluing reagent (cat #526676900) for 4 minutes. Slides were coverslipped and digitized using an Aperio AT2 scanner (Leica Biosystems Inc, Buffalo Grove, IL).

T3 sequence (P43360 whole entry): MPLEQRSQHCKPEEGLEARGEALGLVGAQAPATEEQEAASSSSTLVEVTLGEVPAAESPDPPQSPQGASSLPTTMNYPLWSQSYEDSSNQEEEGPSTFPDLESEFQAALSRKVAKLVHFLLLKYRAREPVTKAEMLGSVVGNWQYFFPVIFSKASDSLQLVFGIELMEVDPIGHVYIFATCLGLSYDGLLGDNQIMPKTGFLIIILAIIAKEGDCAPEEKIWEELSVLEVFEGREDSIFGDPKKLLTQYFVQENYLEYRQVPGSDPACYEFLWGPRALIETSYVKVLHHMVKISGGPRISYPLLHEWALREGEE

Binding result, no binding (tested: 0.1 µg/ml):
B1, B2, B3, B4

These binders were tested against T1, human MAGEB3 (assay: IHC, FFPE CHO cells transfected with human MAGEB3).
Excerpt: (§2) Negative control cells included parental Chinese hamster ovary (CHO) cells, CHO cells stably transfected with mCherry Vector Control (minus Myc/DDK tags), CHO cells stably transfected with mCherry-human DCAF4L2 (plus Myc/DDK tags). The cross-reactivity control cells included CHO cells transfected with mCherry Vector Control (plus Myc/DDK tags) with one of the human MAGE-B or MAGE-A family members (MAGEA1, MAGEA2, MAGEA3, MAGEA4, MAGEA5, MAGEA6, MAGEA8, MAGEA9, MAGEA11, MAGEA12, MAGEB1, MAGEB3, MAGEB4, MAGEB5, MAGEB6, MAGEB10, MAGEB16, MAGEB17, MAGEB18). Positive control cell lines included CHO cells transfected with mCherry Vector (plus Myc/DDK tags) with human MAGE-B2 or CHO cells transfected with mCherry Vector (open reading frame (ORF); minus Myc/DDK tags) with human MAGEB2, and thirteen human cancer cell lines with known endogenous RNA expression level of MAGEB2 (U266B1, T98G, KMM-1, U20S, CFPAC-1, SCaBER, UACC-257, CFPAC-1, VMRC-LCD, NCI-H1703, UM-UC-3, NCI-H1395, NCIH82).
as §1, with “antibody.” for “antibody. Following this, slides were incubated with the Ventana Anti-Rabbit HQ (cat #760-4815) for 28 minutes at RT, Ventana Anti-HQ HRP (cat #760-4820) for 28 minutes at RT, and signals detected with Ventana DAB chromogen kit (cat #760-159) for 5 minutes at RT. Slides were counterstained with Ventana Hematoxylin II (cat #5266726001) for 8 minutes and Ventana Bluing reagent (cat #526676900) for 4 minutes. Slides were coverslipped and digitized using an Aperio AT2 scanner (Leica Biosystems Inc, Buffalo Grove, IL).”

Binding result, no binding (tested: 0.1 µg/ml):
B1, B2, B3, B4

These binders were tested against T2, human MAGEB10 (assay: IHC, FFPE CHO cells transfected with human MAGEB10).
Excerpt: as §2
as §1, with “antibody.” for “antibody. Following this, slides were incubated with the Ventana Anti-Rabbit HQ (cat #760-4815) for 28 minutes at RT, Ventana Anti-HQ HRP (cat #760-4820) for 28 minutes at RT, and signals detected with Ventana DAB chromogen kit (cat #760-159) for 5 minutes at RT. Slides were counterstained with Ventana Hematoxylin II (cat #5266726001) for 8 minutes and Ventana Bluing reagent (cat #526676900) for 4 minutes. Slides were coverslipped and digitized using an Aperio AT2 scanner (Leica Biosystems Inc, Buffalo Grove, IL).”

Binding result, no binding (tested: 0.1 µg/ml):
B1, B2, B3, B4
